# Assay results published in the DeepSol protein solubility set.
# Assay: soluble on expression in E. coli; label from the status in PepcDB or PDB records
row,Sequence,soluble on expression in E. coli
1,MFKRLLMVALLVVAPLANAADQTNPYRLMNEAAEKTFNRLKSEQPKIKQSPDYLRTVVREELLPYVQVRYAGALVLGRYYKDSTPAQRDAYFKAFEAYLEQAYGQALAMYNGQNYQIAPEQPLGNADIVSIRVTIVDNGGRPPVRLDFQWRKNSKTGNWQAYDMIAEGVSMITTKQNEWASILRQKGVDGLTQQLESSAKQTITLDQKKLEHHHHHH,soluble
2,MAGLVDRVSGARLDPAAEAEIRYLEAMIARLEAGEEDPEDFRVFRLKNGIYGIRGRPEHHMIRIKLPVGRITPEGLRVLADVAERYAENRLAHVTTRQAVQLHHVHRRDVPKVLRAVNAVGLTTREACGHSIRAITCCPYAGVSPEEPFDVTPYAEAAYRYFLRHPVGQNLPRKFKIAFEGCAADHARTPIHDIGVVAALEGGKRGFRVYVGGGLGAAPMSAELLEAFTPEEDLLPTMLAIVRLFDRYGNRKVLTQARLKFLVKKWGIAAFREAVREERRLVKLTASGEDLEAWAPPPEPEPPRLPSPPKKPFSFAPGFDAWRRTNLFKQKQEGFYTVTVRLPLGDITPEGLRALAAIAETYAAEVRSAISQNLLLRFVPEEALGGLYEALLEAGLALPEAHTLLDITRCPGADTCNLAITRSRGLAQALEAHLATLPLAQDPGAKAIGVKISGCPNSCGQHHIADIGFYGSSRKVGEREVPHYVLLLGGRTREGEARFGQVVGRLPARRVPEAVERILKRYLEERQNGESFQAYLDRVGAASFKPLLQELQEVPPYEEAPEFYQDLGAEGEAFSVQLGRGECAV,soluble
3,MQEISFRDDILPLKDKLFRLALRITFDRAEAEDVVQDTMIRVWNKREEWTQFGSIEAYCLTVAKNLAIDRSQKKEAQNVELTPEMEEESEISGPYDQ,not soluble
4,AEEHEHHHHDEEHAHHHHHEGSEVDEYGISTFVYYRRPAFDIHKFDRFVSTQWSRNIIRAKGVCYFSNNRDMSFLFEQAGVQKKLKEAGLWYATAPEEELIEVIRQEPGLLRDWDDKYGDRMQKIVFIGRHLDKEELIRELDECLE,not soluble
5,MLISIESKEHYRILCIDGGSTDQTIPMIERLQRELKHISLIQLQNASIATCINKGLMDIKMTDPHDSDAFMVINPTSIVLPGKLDRLTAAFKNNDNIDMVIGQRAYNYHGEWKLKSADEFIKDNRIVTLTEQPDLLSMMSFDGKLFSAKFAELQCDETLANTYNHAILVKAMQKATDIHLVSQMIVGDNDIDTHATSNDEDFNRYIIEIMKIRQRVMEMLLLPEQRLLYSDMVDRILFNNSLKYYMNEHPAVTHTTIQLVKDYIMSMQHSDYVSQNMFDIINTVEFIGENWDREIYELWRQTLIQVGINRPTYKKFLIQLKGRKFAHRTKSMLKRLEHHHHHH,not soluble
6,MSDETFMREAIALARANVEAGGRPFGAVLVRDGRVLARGVNQIHETHDPSAHAELQAIRQASQALGSPRLDGCVIYASGHPCPMCLAAMHLCGIQAAWFAYSNEDGEAFGLSTATLYAEMARPPQRQSLPLRALRPAGEEGLYRQWRQRQA,not soluble
7,MEMMPNIEELRKMRKNLGISQKDLAKVTGVSQSYIARLEKGTINPTYSKIKAIYEYLTKSSEKASTMVLTCDRIMTRNVVVCRSDESILNALNIMRDKGFSQLPVVNEENKVIGTIAENNINDMLLKGMSIDSLRGLTVRRVMSDVLPQVDRNTPVNIIYQLLKYSNAVLVIEAGNLVGIITKADILKTVAGMI,not soluble
8,MGSDKIHHHHHHMTKMLRTYKFRIYPTREQEEKLAKHFGHTRFVYNFFLNYANIIYRVMERPTYYNEWASVLVKLKKTNKYSWLNEVNSQALQQSLKDLERAFKNFFKKQAGYPKFKKKKFSRQTFRIPQHIQLYIKEDNPKYGCIFVPKFKEGIKVRLHRKLPKDGKIKQATFIKTATNKYYAAIVFEVQDAEVQNTSTGILGIDLGIKDTITLSDGKKYKMPDLSKYERQIKRLHRRLSRKQRGSKNWEKARLCLAKLYEKIVNIKNDWLHKITHDLVSESQAGKIVVEDLNIKGMVQNHRLARHIHMQSWRRFLELLEYKAKRCGIEVIKANRYYPSSQMCSECGYINKEVKDLSVREWTCPVCGAHHDRDVNAAKNLVRYGLMLSIGREPSEFTPVDSALAAEPERGLRAITG,not soluble
9,MAHHHHHHMAVGKNKRTSKGKKGGKKKVTDVFTKKEWYDLKAPKMFLVRNFGKTLVTKTIGKKLATDSLKGRIYEVNLADLNNDEDQAHKKIKLSCDHIINRDCYTDFCGLSITRDKLCSLIRKGYTLIEGHTDVKTLDNYHLRMFCIAFTKKRQNQTKSTCYAQTSQIKKIRKKMVDIMTAEASKVLLKDLVKKFIPESIGKEIEKQCKKIYPLQNVLIRKVKILKRPKLDISKLMELHTDPKEESGKNVNALPESKEATNILTAELKH,not soluble
10,MSLSSERLIYLPLGGAGEIGMNAYVYGYGKPGKERLIVVDLGVAFPDMDTSPGVDLIIPDIAWLEERRDQIEAIFITHAHEDHIGAVAHTYDRLRAPIYTRKFTANIAKRKMDEYGHPDDAVTTVAPWPQQTTVGPFKVGFLPMSHSIPESSSLVIDVAGDRLIHSGDFKIDMTPGVGEPYDPELWADVSKDGVKALICDSTNVFSQHAGRSEATVGPEIEKLLGTAQGMVVATTFASNVARVKTLADAGERAGRSVVLLGRAMKRMVEASLETGVMKDFPPVVSPEEARGIPRENLMLLVTGSQGERRAASAQLARGKYMGLEMKEGDMFLFSSKTIPGNERGVIKVINAFSEMGVDIVDDSSGLYHVSGHANRPDLETLHDVVKPQILIPMHGEHRHLREHTKIANAKGMKGVLAVNGMMIDLSGNEPKVVEYVDSGRTYLDGSTQIGAMDGVVRDRIRMALNGHVTVTVILDENDEALGDPWVDAMGLPEQGRSKTSLVDVLEADLAQFLGRANAKTLRDDDKLHDGLKRTVRQSANDEIGKKPEVTIVVSRLSEGHHHHHH,soluble
11,MSLGSVKIVSDLPLQGANRAQTISMVNAIRLAIDQRGGKVAGLKIEYESLDDATAQSGQWDEGKCAENAQQAAQDEEIVGWIGPFNSGCAAVEIPILNEAGLVMISPANTYVGLTKEGGEPDEPDKYYPTGQRNYTRVIPADDKQGRLAAVLMREEGVRTVFILDDRETYGKGLADQVQKSAEEFGIEVVGRQGIDGSASNYRGLMNRVREANPDAIYFGGIIENNAGQLVRDKVGAGMPNDEVLFIGPDGIFVDTFIEQAGDAAEGAYVTFGGIPPERLGERGQRFIEEYNAKYPDDPIQAYTAYAYEAANVLLDAIERAQKADGEVNRENVLREVFATENYKGVLGTWSFDENGDTTLTKLSVQRVQNGEFKLDRVLDVSREGHHHHHH,soluble
12,MSLRISTNQIYQRGLDNLLTQQERLARLQDQQASGIRVRTPSDDPVASAQIELIKQRINNIELFQNNRQAADSALRLEEGILSNAVNSLHRLREIQIQAGNPSLSEEDRKTLAVEAQALLNQLLDYANTKDSNGSYMFSGSKSLTQPVSLNLSGQYVYNGDSTQRFQAVTTSLLVAVNDTGDNVFMRIPSGNGRFAIRETLTPNTGTASVSSGSVTNEAAFVPDNYTMTFALNSQGNLVVMVSGTLSGNVIPPSGLPDDAPLYQEGSAIGFNGMEMVVSGLPKAGDSFSISPAKNESIFSTVQRMINNLNKPYTSSVEKAATQTENNQLLAQIDSALGHILSVQSDLGARLNQLETAEKANNDYLDISAATLKKLREIDEGHHHHHH,soluble
13,MAHHHHHHMDAKQRESIEELKEQLRGLEEALLIQEKVMQQRNQVILSLSSSIADAENSIGESKEGLKKAEESLEEAIRSNTIAHTERLVLQEEATKYSERDEYLNELSEADAGLNAAEAQVKDLVIQINDLSREPQNKNALQRVTLVRLISMLNDLHASLKHSVQCVPHEEDNRAREVLKAIRELSRERERTFGHCLRKKREIMGVMELKKQRTDEILLESKKNVALLRDIHEKTTLDAVEKIQKERNLLQEELENIKRANQLLQDTLGSTECLCDTKGSDSASTPASISMNVASCQSTDVQKEREHLREYLRHLEEKVTQLRSTTDELRESVGSQMEKNTLKLKDLRHQVRSKQNETHRLENENRKLKSLCDSLASTLGPK,not soluble
